Source: patent US20190135918A1 (ICHNOS SCIENCES, published 2019)

Experiments:
[1] = target: T1, soluble extracellular region of cynomolgus monkey CD38 antigen fused to a 6-His-tag (cynomolgus monkey, UniProt Q5VAN0 45-301); experiment: SPR
T1 construct: also called cynomolgus CD38

[2] = target: T2, F4 (peptide-Fc fusion derived from the extracellular domain of human CD38) (human, UniProt P0DOX5 223-449 = IgG part); experiment: SPR, antibody immobilized, peptide-Fc fusion injected
T2 construct: As F1; by count CD38 residues 82-94

[3] = target: T3, F5 (peptide-Fc fusion derived from the extracellular domain of human CD38) (human, UniProt P0DOX5 223-449 = IgG part); experiment: as above
T3 construct: As F1; by count CD38 residues 95-107

[4] = target: T4, F6 (peptide-Fc fusion derived from the extracellular domain of human CD38) (human, UniProt P0DOX5 195-449 = IgG part); experiment: as above
T4 construct: As F1; by count CD38 residues 108-120 (holds M110)

[5] = target: T5, F7 (peptide-Fc fusion derived from the extracellular domain of human CD38) (human, UniProt P0DOX5 223-449 = IgG part); experiment: as above
T5 construct: As F1; by count CD38 residues 121-133

[6] = target: T6, F8 (peptide-Fc fusion derived from the extracellular domain of human CD38) (human, UniProt P0DOX5 223-449 = IgG part); experiment: as above
T6 construct: As F1; by count CD38 residues 134-146

[7] = target: T7, F9 (peptide-Fc fusion derived from the extracellular domain of human CD38) (human, UniProt P0DOX5 223-449 = IgG part); experiment: as above
T7 construct: As F1; by count CD38 residues 147-159

[8] = target: T8, F10 (peptide-Fc fusion derived from the extracellular domain of human CD38) (human, UniProt P0DOX5 223-449 = IgG part); experiment: as above
T8 construct: As F1; by count CD38 residues 160-172

[9] = target: T9, F11 (peptide-Fc fusion derived from the extracellular domain of human CD38) (human, UniProt P0DOX5 223-449 = IgG part); experiment: as above
T9 construct: As F1; by count CD38 residues 173-185

[10] = target: T10, F14 (peptide-Fc fusion derived from the extracellular domain of human CD38) (human, UniProt P0DOX5 223-449 = IgG part); experiment: as above
T10 construct: As F1; by count CD38 residues 212-224

[11] = target: T11, F16 (peptide-Fc fusion derived from the extracellular domain of human CD38) (human, UniProt P0DOX5 223-449 = IgG part); experiment: as above
T11 construct: As F1; by count CD38 residues 238-250

[12] = target: T12, F18 (peptide-Fc fusion derived from the extracellular domain of human CD38) (human, UniProt P0DOX5 223-449 = IgG part); experiment: as above
T12 construct: As F1; by count CD38 residues 264-276

[13] = target: T13, F19 (peptide-Fc fusion derived from the extracellular domain of human CD38) (human, UniProt P0DOX5 223-449 = IgG part); experiment: as above
T13 construct: As F1; by count CD38 residues 277-289

[14] = target: T14, soluble extracellular region of human CD38 fused to a 6-His-tag (human, UniProt P28907 43-300); experiment: SPR, equilibrium response, antibody captured on protein G
T14 construct: Expressed with the murine VJ2C leader; also called human CD38 protein; human CD38 antigen

[15] = target: T15, F1 (peptide-Fc fusion derived from the extracellular domain of human CD38) (human, UniProt P0DOX5 223-449 = IgG part); experiment: SPR, human 767 antibody immobilized on the chip, peptide-Fc fusion injected
T15 construct: 13-residue peptide fused to human IgG1 Fc (CH2-CH3) with an Ala-Ser linker; by count CD38 residues 43-55

[16] = target: T16, F2 (peptide-Fc fusion derived from the extracellular domain of human CD38) (human, UniProt P0DOX5 223-449 = IgG part); experiment: as above
T16 construct: As F1; by count CD38 residues 56-68

[17] = target: T17, F12 (peptide-Fc fusion derived from the extracellular domain of human CD38) (human, UniProt P0DOX5 223-449 = IgG part); experiment: as above
T17 construct: As F1; by count CD38 residues 186-198

[18] = target: T18, F13 (peptide-Fc fusion derived from the extracellular domain of human CD38) (human, UniProt P0DOX5 223-449 = IgG part); experiment: as above
T18 construct: As F1; by count CD38 residues 199-211

[19] = target: T19, F15 (peptide-Fc fusion derived from the extracellular domain of human CD38) (human, UniProt P0DOX5 223-449 = IgG part); experiment: as above
T19 construct: As F1; by count CD38 residues 225-237

[20] = target: T20, F17 (peptide-Fc fusion derived from the extracellular domain of human CD38) (human, UniProt P0DOX5 223-449 = IgG part); experiment: as above
T20 construct: As F1; by count CD38 residues 251-263

[21] = target: T21, F20 (peptide-Fc fusion derived from the extracellular domain of human CD38) (human, UniProt P0DOX5 223-449 = IgG part); experiment: as above
T21 construct: Final peptide of 11 amino acids, else as F1; by count CD38 residues 290-300

[22] = target: T22, F3 (peptide-Fc fusion derived from the extracellular domain of human CD38) (human, UniProt P0DOX5 223-449 = IgG part); experiment: SPR, antibody immobilized on the chip, peptide-Fc fusion injected (1000 nM per paragraph 238)
T22 construct: As F1; by count CD38 residues 69-81; also called F3 construct

Kd [1]: ~1.2 µM
binding result [2]: no binding (tested: 1000 nM)
binding result [3]: no binding (tested: 1000 nM)
binding result [4]: no binding (tested: 1000 nM)
binding result [5]: no binding (tested: 1000 nM)
binding result [6]: no binding (tested: 1000 nM)
binding result [7]: no binding (tested: 1000 nM)
binding result [8]: no binding (tested: 1000 nM)
binding result [9]: no binding (tested: 1000 nM)
binding result [10]: no binding (tested: 1000 nM)
binding result [11]: no binding (tested: 1000 nM)
binding result [12]: no binding (tested: 1000 nM)
binding result [13]: no binding (tested: 1000 nM)
Kd [14]: ~0.3 µM
binding result [15]: no binding
binding result [16]: no binding
binding result [17]: no binding
binding result [18]: no binding
binding result [19]: no binding
binding result [20]: no binding
binding result [21]: no binding
binding result [22]: binds
B1: human 767 antibody (antibody, human IgG1, kappa, V domains shown)
VH: QVQLVESGGGLVQPGGSLRLSCAASGFTFSSYWMSWVRQAPGKGLEWVANIKQDGSEKYYVDSVKGRFTISRDNAKNSLYLQMNSLRAEDTAVYYCAREGRTGYFDYWGQGTLVTVSS
VL: QSVLTQPPSASGTPGQRVTISCSGSTSNIGTNYVYWYQQLPGTAPKLLIYRNDQRPSGVPDRFSGSKSGTSASLAISGLRSEDEADYYCAAWDDSRSGVYAFGTGTKVTVLR
notes: Human IgG1
